Reference: IntAct's records for PubMed 20952388

B1: Ethylene receptor 1 (Arabidopsis thaliana (Mouse-ear cress)), P49333 (parent)
chain: MEVCNCIEPQWPADELLMKYQYISDFFIAIAYFSIPLELIYFVKKSAVFPYRWVLVQFGAFIVLCGATHLINLWTFTTHSRTVALVMTTAKVLTAVVSCATALMLVHIIPDLLSVKTRELFLKNKAAELDREMGLIRTQEETGRHVRMLTHEIRSTLDRHTILKTTLVELGRTLALEECALWMPTRTGLELQLSYTLRHQHPVEYTVPIQLPVINQVFGTSRAVKISPNSPVARLRPVSGKYMLGEVVAVRVPLLHLSNFQINDWPELSTKRYALMVLMLPSDSARQWHVHELELVEVVADQVAVALSHAAILEESMRARDLLMEQNVALDLARREAETAIRARNDFLAVMNHEMRTPMHAIIALSSLLQETELTPEQRLMVETILKSSNLLATLMNDVLDLSRLEDGSLQLELGTFNLHTLFREVLNLIKPIAVVKKLPITLNLAPDLPEFVVGDEKRLMQIILNIVGNAVKFSKQGSISVTALVTKSDTRAADFFVVPTGSHFYLRVKVKDSGAGINPQDIPKIFTKFAQTQSLATRSSGGSGLGLAISKRFVNLMEGNIWIESDGLGKGCTAIFDVKLGISERSNESKQSGIPKVPAIPRHSNFTGLKVLVMDENGVSRMVTKGLLVHLGCEVTTVSSNEECLRVVSHEHKVVFMDVCMPGVENYQIALRIHEKFTKQRHQRPLLVALSGNTDKSTKEKCMSFGLDGVLLKPVSLDNIRDVLSDLLEPRVLYEGM
partner: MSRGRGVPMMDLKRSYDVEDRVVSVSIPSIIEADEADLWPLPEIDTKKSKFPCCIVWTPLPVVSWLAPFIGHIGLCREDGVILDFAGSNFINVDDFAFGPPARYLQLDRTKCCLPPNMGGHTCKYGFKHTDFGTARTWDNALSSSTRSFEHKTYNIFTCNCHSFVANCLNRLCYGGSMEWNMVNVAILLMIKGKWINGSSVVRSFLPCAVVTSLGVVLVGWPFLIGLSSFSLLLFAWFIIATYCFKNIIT

Variants of: B1
Details: with rte1_arath RTE1, F4ITL6

| Variant | effect of a mutation on the interaction |
| --- | --- |
| C65W | decreasing interaction |
| A102T | decreasing interaction |
